Data on two molecules can be found in patent EP1364964A1, “Radiolabeled annexingalactose conjugates” (NEORX CORPORATION, priority 1994, dated 1995).

The conditions of series [1]: in vivo. On the procedure:
• A. Animal Preparation - LA Vascular Thrombi. Fasting 25-30 kg Yorkshire swine were sedated with intramuscular Telazol (5-10 mg/kg) (commercially available from AVECO Co.) and commercially available Atropine (1 mg, Elkins-Sinn, Inc., Cherry Hill, NJ). Surital (200 mg) (commercially available from Abbott Laboratories) anaesthesia was administered intravenously. The animals were intubated and given inhalation anaesthesia of 1.5-2% halothane (commercially available from Abbott Laboratories) and O2 sufficient to obtain a deep level of anesthesia and physiologic arterial blood gases. Continuous electrocardiographic monitoring was instituted using alligator clip electrodes. A cut down in the neck region was conducted, and an 8 french catheter (USCI Co, Billerica, MA) was placed in the right common carotid artery for blood pressure and arterial blood gas monitoring as well as for blood sampling. The swine were placed in a right lateral decubitus position, and a lateral thoracotomy was performed to expose the heart. The incision was held open by a thoracotomy retractor. The pericardium was opened, and the left atrial appendage was isolated from the left atrium by a vascular cross- clamp. Rubber tipped forceps were used to gently crush the appendage. Five minutes later, ricinoleate (1 mg, ICN Pharmaceuticals, Costa Mesa, CA) and thrombin (50 mg, Johnson and Johnson Co., Arlington, Texas) were injected into the LAA (left atrial appendage) using a 27 Ga needle. The cross-clamp was removed 10 minutes later. One hour after the crush injury, Tc-99m-annexin V, prepared in accordance with Example I above, was administered as an intravenous bolus dose in an ear vein. The intravenous line was then flushed with saline. In 7 animals, I-125 labeled ovalbumin was administered as a non-specific control preparable, for example, by the procedure described by Fraker et al., Biochem. Biophys. Res. Commun. 80: 849-57, 1978). Briefly, I-125-radiolabeled ovalbumin was prepared by the Iodogen method, employing 600 µg ovalbumin (Sigma Chemical Co., St. Louis, Missouri) and NaI-125 (2mCi, 0.92 nmol). Image acquisition was performed as described below. At the end of the experimental procedure (generally about 150 minutes), the animals were sacrificed by an intravenous bolus dose of 80 mEq of KCl while the animals were still under general anaesthetic. A final blood sample was taken for well counting. The heart was rapidly excised, washed free of blood and dissected into samples for well counting. Additional samples of carotid artery, lung, liver, spleen, muscle and kidney were obtained in some animals. • B. Controls. Five different types of controls were used: open chest sham; closed chest sham; ovalbumin; indium platelets; and non-specific Tc-99m-labeled antibody. • 1. Open Chest Sham. In three animals, the heart was exposed as above, but the left atrium was not isolated, crushed or injected with ricinoleate/thrombin. Marker images with a cobalt marker were performed as described below, and the Tc-99m-annexin V was injected 30-60 minutes after LAA exposure. Imaging and sample acquisition were identical to that described in A above. • 2. Closed Chest Sham. In seven animals, an ear intravenous line was established. No thoracotomy was performed. Sedation and anesthesia were identical to that described in A above. The Tc-99m-annexin V (+/other control radionuclides, such as I-125 ovalbumin or In-111-platelets) was administered and image acquisition was performed. • 3. Ovalbumin. I-125 ovalbumin was administered in 7 animals as a negative control protein. […] Indium Platelets. In-111 platelet labeling was performed in 7 animals as a positive well counting label. In-111 radiolabeled platelets were prepared in accordance with the procedure described by Stratton et al., Am. J. Cardiol. 47: 874, 1981 and Stratton et al., Circulation 69: 561, 1984. Imaging was not attempted because of the long serum half-life of the In-111-platelets. • 5. Non-specific Tc-Labeled Antibody. […]

In series [2] the test system is atrial thrombi and injured left atrium. Set-up: species or system Yorkshire swine. As to conditions: in vivo. On the procedure: • A. Animal Preparation - LA Vascular Thrombi. […] Continuous electrocardiographic monitoring was instituted using alligator clip electrodes. […] The incision was held open by a thoracotomy retractor. […] The cross-clamp was removed 10 minutes later. […] The intravenous line was then flushed with saline. […] Res. Commun. 80: 849-57, 1978). […] Image acquisition was performed as described below. […] A final blood sample was taken for well counting. […] Open Chest Sham. […] Closed Chest Sham. In seven animals, an ear intravenous line was established. No thoracotomy was performed. […] Ovalbumin. […] Indium Platelets. […] J. Cardiol. […] Non-specific Tc-Labeled Antibody. […] Imaging. […] The cobalt marker was then removed. […] These were followed by a 10 minute tomographic acquisition. […] Each image was scored as positive, equivocal or negative. […] Each vial was counted for 1 minute.
For the injured tissues and thrombi, multiple specimens were usually taken from the same animal. In those cases, the maximum ratio for any one specimen is reported, as well as the average of all specimens taken. The maximum for each animal was averaged across all animals and is reported as the Maximum Anx-V Ratio.

For series [3], the system named is freshly isolated human platelets. Put plainly: competition assay: inhibition of binding of unmodified 125I radiolabeled annexin V to platelets. The method, then: The ability of galactose-modified annexin V to bind to activated platelets was assessed by determining its ability to inhibit the binding of unmodified, ^125I radiolabeled annexin V to freshly isolated human platelets, following the method of Thiagarajan and Tait J. Biol. Chem. 265: 17240-43, 1990.

Take “Tc-99m-annexin V: annexin V radiolabeled with Tc-99m by a diamide dimercaptide N2S2 chelate (Example I)”: in series [1], the “%ID/g a” value came out at 0.0389 %ID/g, the “%ID/g b” value is 0.0300 %ID/g, the “ID/g cleared in the slower b phase” value worked out at 43% and the “a + b” value came out at 0.0689. In series [1], this molecule returned a t1/2 a of 9.6 min and a t1/2 b of 46 min. Further, the highest non-target localization result in series [2] is “kidney”.

B1: 1.1: galactose-modified annexin V, substitution ratio 1.1:1 (offering ratio 75:1) (conjugate, UniProt P08758 2-320, looked up)
Annexin A5: AQVLRGTVTDFPGFDERADAETLRKAMKGLGTDEESILTLLTSRSNAQRQEISAAFKTLFGRDLLDDLKSELTGKFEKLIVALMKPSRLYDAYELKHALKGAGTNEKVLTEIIASRTPEELRAIKQVYEEEYGSSLEDDVVGDTSGYYQRMLVVLLQANRDPDAGIDEAQVEQDAQALFQAGELKWGTDEEKFITIFGTRSVSHLRKVFDKYMTISGFQIEETIDRETSGNLEQLLLAVVKSIRSIPAYLAETLYYAMKGAGTDDHTLIRVMVSRSEIDLFNIRKEFRKNFATSLYSMIKGDTSGDYKKALLLLCGEDD
modifications: galactose-modified
B1: the “Competition (% of control)” value in series [3] (absolute value (left column), inhibition of 125I annexin V binding to human platelets) was 21.4 % of control; in series [3] (value normalized to 100% for unmodified annexin V (right column)), 28.7 % of control.
